Experiment: soluble fraction after stress (log2 fold change); higher = more stays soluble; pooled small domains, quantitative proteomics
Conditions: stress: 50 degC
Summary of the method: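 Each library was heated to 50°C as a stress step. The libraries, made up of small protein domains, were pooled and analysed at high throughput by quantitative proteomics. The reported value is the base-two logarithm of the fold change in each protein's soluble amount after stress, taken as a measure of aggregation propensity. The higher the value, the more protein stays in solution.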

Which “soluble fraction (log2)” value does the source give for “HMSVEVADITRAYYEGVGFEWWIRSVRLDPNELIVDNDDEGKLYRVPFEINGEEVTFGDPVEVKIRYE” here?
The value was -0.541.

With “HMQASIPQSQKDALAKELQALPPHGRNRVLSTFRQQFNISSEKISEFITTPEHLSFIRSKIAEVESDS” as the sequence, how does the “soluble fraction (log2)” value read?
The value was 0.0722.

Which “soluble fraction (log2)” value does the source give for “HMNKSYTVPDVRGMTVEEAQEAEGVKDIFTVHVQGTRKTDEYQPGQIVEQDPIAGRTRKSNFVIEVYVAE” here?
The value was 0.0819.

Which “soluble fraction (log2)” value does the source give for “HMAKQQTTTTAHVVTTGETLYSIAQKNGISVEELKKSNNITSDKLRPGQTLHITKVSKTSSTAK” here?
Its value is 0.365.

Which “soluble fraction (log2)” value does the source give for “HMSTTALLEKMVRYIRTLPVISQVVLSLHYYRGMELREIASELDITESRASQLHTTAVLGIRDLLSSY” here?
Its value is -3.33.

For “HMIVSEYIIIGGDKKEYGPVSMGEVGEWVQGGRANGDSKIKKVGTEEWGRLRDFPEFSAYLS”, which “soluble fraction (log2)” value is on record?
The value was -0.00369.

With “HMTRLDLQNAFRVLPPEIQPAAVLFFLQERKQREIAKILGIGLPLVKYRIRKARELLAQFLRKEA” as the sequence, how does the “soluble fraction (log2)” value read?
The value was -0.241.

For “HMKGTVKFFNESKGFGFITEEGTNKEHFVHVSGLVDEIRENDEVEFDLQDGRKGLNAVNVRV”, which “soluble fraction (log2)” value is on record?
Its value is 0.231.

With “HMDKENVLQLQKDLLRLSVNALEKRYYQFSDILLLKYILPLVPKEISIDDQSRLRSLLSGIN” as the sequence, how does the “soluble fraction (log2)” value read?
The value was -0.238.

For “HMAMDYTVVHSDRRTIAIQIQRDGRVVVRAPYAATAEDIRRVVDSHRDWVEKTVRRQQEQLAAS”, which “soluble fraction (log2)” value is on record?
The value was -0.0261.

For “HMSDPEAFIRQTVAAAEPEGIALSVLGKRVRGKFRTFKLRDLGYAQFRPYLGDLDGIKVEQRDGQSYARLD”, which “soluble fraction (log2)” value is on record?
The value was -0.795.

For “HMNTETAVTKAIDQIQVMMDLRNRSVSFTRDQETGTDIIKVIDDNTGDTIRQMPSEELLTFMKNLTQ”, which “soluble fraction (log2)” value is on record?
The value was 0.147.

Which “soluble fraction (log2)” value does the source give for “HMIDHKVIRSFRQKRNMTLQELAQKANLSVSYLSEIELGKKQPSLETLDKLSKALNISLEGL” here?
The value was -0.116.

With “HMQSEESTHIGERMLNQALRAMHVEPSAVKEKQWEKLIRDYSVKNKQDILTDIGLGKRQSVMVAHQLLAI” as the sequence, how does the “soluble fraction (log2)” value read?
The value was 0.0574.

With “HMNERLKQLRLSLNLNQEEFGKWLGISKSGVSDIESGRRKVTEQHIIMLSNHNISEKWLRTGEGEMFV” as the sequence, how does the “soluble fraction (log2)” value read?
The value was -0.0803.

With “HMIAWNFDTMKESLSEMERVDYQEFIKAFLSLELSISDRTILNQVYQDYMDEDDLSLISDELRV” as the sequence, how does the “soluble fraction (log2)” value read?
Its value is 0.0819.

With “HMIRQETYLLVRKAVGALPVQMRKIIELAMQGKKNAEIAAQLSISEGTVHTLKKTAYKKLRDRLQE” as the sequence, how does the “soluble fraction (log2)” value read?
Its value is -2.22.

With “HMEAYDTMEDRTTLAPGFAKLDKRERYILHLRFFEGLTQSQIAERVGISQMHVSRLIRRSLEKLREEIGD” as the sequence, how does the “soluble fraction (log2)” value read?
The value was -0.671.

For “HMQKDAYVPDIISKLKSSRMIVVEGTIYPLLTRLKNTGLLSYRWEESLQGPPRKYYSITEQG”, which “soluble fraction (log2)” value is on record?
The value was 0.112.

Which “soluble fraction (log2)” value does the source give for “HMDGLGLGAVILAQRKRQGWTQEDLAARIGVSKGAVSKWETGQSYPDLPLVPRLAALFHITVDELLDYR” here?
The value was -0.662.

Which “soluble fraction (log2)” value does the source give for “HMNNFTQSALDTIDGIGKRRKKLLLNHFGSVKLIENASIEDIKKIDGISDLVANKIYNFFNKN” here?
Its value is -0.652.

With “HMYSSIIGIAFTRAENKPAAPTGGSYSNPHPVDGNWKAAPYDGDGNLWYSIRHFNENVDIQDREWSDPTLG” as the sequence, how does the “soluble fraction (log2)” value read?
The value was -0.24.

Which “soluble fraction (log2)” value does the source give for “HMQPDFLDAKASLALLGVRPQTLYAYVSRGAIRSVPQPGTKAHLYSRSDIERVMARAAARAG” here?
Its value is -1.12.

Which “soluble fraction (log2)” value does the source give for “HMNNVDQLIEQYKTLPGGLLPLLHAIKHALGYIPESTVGSIAKGFNLSRAEVHGVISFYHDFNTQP” here?
The value was 0.0707.

For “HMSDKNVYGKYKNVFLSDEEFSELKQFYPNDWSDRIETLSEGIELKGYKYKNYLLAIKKWAEYEGQKAD”, which “soluble fraction (log2)” value is on record?
Its value is -0.0354.

With “HMKRVTRQRTEILRVIDESERPLGPQEILQAGREAIPSLSIATIYRTLRDLLAEELIKTVALPGDSPRYES” as the sequence, how does the “soluble fraction (log2)” value read?
Its value is -1.31.

Which “soluble fraction (log2)” value does the source give for “HMSLSDADVERLLEVAIDIESLEEREGLYYQANESEPYSGWGKLMYDSGQVERLVPYKDGRWEGLWTIW” here?
Its value is -1.04.

For “HMGTDIGADKAAQTALADAGLSSSQVTGLRTKQDWDDGQLRYEVEFRAGGVEYDYELAADGTILKADRDT”, which “soluble fraction (log2)” value is on record?
Its value is 0.247.

Which “soluble fraction (log2)” value does the source give for “HMLSVRQRMGELLERLADGQFHRFESLFTVEEGKLGVVVTFLGLLTLAKEQLLDIVQEGPTAPIYVKSLA” here?
The value was -0.437.

For “HMDSINGEASISRELHGTRFDQAAAILFPEFSRSRLQAWIGAGALTLDGQTARAKDKVTQGQHLVLAAAVE”, which “soluble fraction (log2)” value is on record?
Its value is -0.0684.

Which “soluble fraction (log2)” value does the source give for “HMGKFMVQVGAFSRINGAEITRTKYDNLGTHKAIIKNLDGMNRVFLTGFLSEDEARDFIASSNLKGAFIIR” here?
The value was -1.66.

Which “soluble fraction (log2)” value does the source give for “HMNVVSIEHIRTHLQNHLSLIGRSIEESFNEAKVIAFVASLFLTHRGYASVSQDMGTNGEIYLQDLW” here?
The value was -0.381.

Which “soluble fraction (log2)” value does the source give for “HMTEEPISDGIKKLVEEWENIEGNLIMIFHGIQKHYGYVPRNVAKYVSEAIDVPLTRIYEILTFYNYFTM” here?
Its value is 0.142.

With “HMSTYTETETAYLKAYSAAGVDGKISDSERGILNMTAEALGITVERTTELEAMFNLTVEEEA” as the sequence, how does the “soluble fraction (log2)” value read?
Its value is -0.118.

With “HMQGNGKVATELLKDIIASDNLYINAMRMLVMHYNSKGTNQVEMVKLLHNILDLVPDDEYANEILKSAKKA” as the sequence, how does the “soluble fraction (log2)” value read?
Its value is -0.327.

Which “soluble fraction (log2)” value does the source give for “HMVAPNSEATTKLIIEKTKYANESPAILMGFKATATMLMAKHVVLPTSKYAYFNEGRALLEKAIK” here?
The value was -0.0203.

For “HMFLPFFDNLRKAGVPVSLREFLGFLEGMKAGLATYDIDAFYFLARTTMVKDERNLDKFDRAFSATFKG”, which “soluble fraction (log2)” value is on record?
The value was -0.563.

For “HMSLRVIEIFGTPQQMSARISLMDGSVTDVKVGQSIPGTSYKVASITGNGVWIQNGTAVSYTHL”, which “soluble fraction (log2)” value is on record?
The value was -1.3.

For “HMYPMQNYSTIIGVIELRQQSVGYATTQKRYGIGSSTVTLIMKRFKELGLTLEELRAMPPKAVEVAFYPPE”, which “soluble fraction (log2)” value is on record?
Its value is -1.11.

For “HMGIRQGKVTSTFVNVRSGASTANAKVGELHKGDVVSLIEKVANFWRIGPGQFVSADYIQVLAS”, which “soluble fraction (log2)” value is on record?
The value was -0.508.

With “HMIYAEDFVGRQGTANTILRPSGRIEIEGEVYDAYTRGEYVEAGERVVVISQEGSTLKVRVV” as the sequence, how does the “soluble fraction (log2)” value read?
The value was -0.683.

Which “soluble fraction (log2)” value does the source give for “HMTFFDDLLYQAKAAVDNDPSIKPSLHNRAIIEILYQQGVFNMKNAVEHVAELLEISKNTVYLHLRSVKG” here?
Its value is -0.973.

Which “soluble fraction (log2)” value does the source give for “HMDLPGIVTETDRQRADLAARIGAAKVEAVLAGGARSVEADEDFDADTRRELHQFLTRMARRAFLEER” here?
The value was -0.0484.

For “HMDWPDDETIARIYALIKSDISSQARKVMELRFSEGMPFARIAAAMGISETAVYRHLSHALTVIRQKLN”, which “soluble fraction (log2)” value is on record?
Its value is -2.06.

With “HMGTIEQAFKGKAPGSAHLYDRARAVLAGGVTHDTRIHAPFPIMVQRALGARKWDVDGNEYIDY” as the sequence, how does the “soluble fraction (log2)” value read?
The value was 0.0863.

With “HMVKTANVAYSEFLKLVESDNISDVSIVGRTITGHLDDGTKFSTYTPPNDPSLIDKLTRKNVIIKSAPE” as the sequence, how does the “soluble fraction (log2)” value read?
Its value is -0.00389.

For “HMNSKMTYSELVTNITNKEVESIKISSTGSTASVKLKNSKSEKEVNIPSLDSFMSYTEEYLKTGDFTLDEE”, which “soluble fraction (log2)” value is on record?
Its value is -0.144.

With “HMRKLTDRQRQILDLIKTIIAETGAPPTRAEISTALGFKSANAAQEHLQALAQKGMIDLVSGASRGIRLRG” as the sequence, how does the “soluble fraction (log2)” value read?
The value was -0.379.

Which “soluble fraction (log2)” value does the source give for “HMLPKILVMDGKVNKNALTTLGKDEEWVKKVLRNHNIHSIKDVLLALYDTKGKFQYQLYDDYEK” here?
The value was -0.0783.

For “HMDPYLSGLLQKLAETDKKISFTRLRSEDLDGESREAIYEFIEKYSGRFGVRWLLNEFGLSPSVYYNYLHS”, which “soluble fraction (log2)” value is on record?
Its value is -0.741.

Which “soluble fraction (log2)” value does the source give for “HMKLIRIPFILTEGPDSQKITIDVDGDEEFRLGDVFEEDDKLWTVNQILVSGERKAKRSMAGEVMRISALR” here?
The value was -1.26.

With “HMQNKFLDIVGEIEVKAVDYYLLKDTSGLVIKFPKNLVFANGLKIADNKIGLTVSLYGAWVHEET” as the sequence, how does the “soluble fraction (log2)” value read?
Its value is -1.17.

For “HMIETIQVPRAFNDWHEQADKTKSVFEVYAEIEASENEKLIAWVRNNQNEFAKIWLGALIPELE”, which “soluble fraction (log2)” value is on record?
The value was -1.39.

With “HMDPKISWESDEKLSANIGHYENSIKPLMGNKYLIELSQLKDKIESHPWVARATIKRIFWNKIHIQLESHD” as the sequence, how does the “soluble fraction (log2)” value read?
Its value is 0.00717.

With “HMKEVELENMIKAKGFKDAAVLVDERSVTVIVESERLAAGDSASIKELVSRGTGVDPQNVVII” as the sequence, how does the “soluble fraction (log2)” value read?
The value was -0.107.

— the domain aggregation screens of Martell et al. (2025)
